Drawing on the Human Domainome abundance scans (Beltran et al. 2025), this text covers abundance fitness for 87 substances.

± gives the uncertainty stated by the source.

The nature of this data set: abundance fitness (aPCA) (normalised: wild type 0, dead -1); higher = more abundant; growth selection in yeast, the domain comes from the species named. The conditions noted are these: Homo sapiens.
“BAG family molecular chaperone regulator 3 W26K, O95817” returned an abundance fitness of 0.189 ± 0.081. The figure for “BAG family molecular chaperone regulator 3 W26L, O95817” is -0.583 ± 0.14; for “BAG family molecular chaperone regulator 3 W26M, O95817” it is -0.721 ± 0.2; for “BAG family molecular chaperone regulator 3 W26P, O95817” it is -0.892 ± 0.39. The value for “BAG family molecular chaperone regulator 3 W26Q, O95817” was -0.641 ± 0.33; that for “BAG family molecular chaperone regulator 3 W26R, O95817” was -0.228 ± 0.1; that for “BAG family molecular chaperone regulator 3 W26S, O95817” was -0.381 ± 0.12.

On to “BAG family molecular chaperone regulator 3 W26T, O95817”, for which the abundance fitness was -0.335 ± 0.074.

Consider “BAG family molecular chaperone regulator 3 W26V, O95817”, for which the abundance fitness was -0.467 ± 0.2. As to “BAG family molecular chaperone regulator 3 W26Y, O95817”, the abundance fitness was -0.326 ± 0.48. The substance “BAG family molecular chaperone regulator 3 W36A, O95817” showed an abundance fitness of 0.844 ± 0.49. The figure for “BAG family molecular chaperone regulator 3 W36E, O95817” is 1.43 ± 0.23.

The substance “BAG family molecular chaperone regulator 3 W36G, O95817” had an abundance fitness of 0.48 ± 0.35. The value for “BAG family molecular chaperone regulator 3 W36K, O95817” was 1.09 ± 0.12; that for “BAG family molecular chaperone regulator 3 W36R, O95817” was 0.623 ± 0.3. The value for “BAG family molecular chaperone regulator 3 W36S, O95817” was 1.56 ± 0.45; that for “BAG family molecular chaperone regulator 3 W36T, O95817” was 1.25 ± 0.32. The figure for “BAG family molecular chaperone regulator 3 W36V, O95817” is 1.02 ± 0.24; for “BAG family molecular chaperone regulator 3 W49C, O95817” it is -0.634 ± 0.29. Substance “BAG family molecular chaperone regulator 3 W49D, O95817” yielded an abundance fitness of -0.572 ± 0.44. The figure for “BAG family molecular chaperone regulator 3 W49E, O95817” is -0.221 ± 0.12; for “BAG family molecular chaperone regulator 3 W49F, O95817” it is -0.227 ± 0.42; for “BAG family molecular chaperone regulator 3 W49G, O95817” it is -0.748 ± 0.15. Substance “BAG family molecular chaperone regulator 3 W49L, O95817” showed an abundance fitness of -0.588 ± 0.081. The value for “BAG family molecular chaperone regulator 3 W49M, O95817” was -0.21 ± 0.18; that for “BAG family molecular chaperone regulator 3 W49N, O95817” was -0.204 ± 0.34; that for “BAG family molecular chaperone regulator 3 W49P, O95817” was -0.72 ± 0.25. The value for “BAG family molecular chaperone regulator 3 W49Q, O95817” was -0.764 ± 0.42; that for “BAG family molecular chaperone regulator 3 W49R, O95817” was -0.226 ± 0.1. Regarding “BAG family molecular chaperone regulator 3 W49S, O95817”, the abundance fitness is -0.436 ± 0.12. Turning to “BAG family molecular chaperone regulator 3 W49V, O95817”, the abundance fitness was -0.665 ± 0.13. Substance “SAFB-like transcription modulator D24A, Q9NWH9” gave an abundance fitness of -0.217 ± 0.033. The figure for “SAFB-like transcription modulator D24C, Q9NWH9” is -0.226 ± 0.036; for “SAFB-like transcription modulator D24E, Q9NWH9” it is -0.003 ± 0.038; for “SAFB-like transcription modulator D24F, Q9NWH9” it is -0.466 ± 0.033. The value for “SAFB-like transcription modulator D24G, Q9NWH9” was -0.282 ± 0.03; that for “SAFB-like transcription modulator D24H, Q9NWH9” was -0.145 ± 0.034; that for “SAFB-like transcription modulator D24I, Q9NWH9” was -0.693 ± 0.035. The figure for “SAFB-like transcription modulator D24K, Q9NWH9” is -0.157 ± 0.034; for “SAFB-like transcription modulator D24M, Q9NWH9” it is -0.229 ± 0.036. Regarding “SAFB-like transcription modulator D24N, Q9NWH9”, the abundance fitness was -0.098 ± 0.034. The value for “SAFB-like transcription modulator D24P, Q9NWH9” was -0.598 ± 0.033. “SAFB-like transcription modulator D24Q, Q9NWH9” displayed an abundance fitness of -0.076 ± 0.037.

The substance “SAFB-like transcription modulator D24R, Q9NWH9” gave an abundance fitness of -0.335 ± 0.033. The figure for “SAFB-like transcription modulator D24S, Q9NWH9” is -0.149 ± 0.032.

“SAFB-like transcription modulator D24T, Q9NWH9”: the abundance fitness was -0.157 ± 0.033. The value for “SAFB-like transcription modulator D24V, Q9NWH9” was -0.547 ± 0.033. As for “SAFB-like transcription modulator D24W, Q9NWH9”, the abundance fitness was -0.484 ± 0.039. The figure for “SAFB-like transcription modulator D24Y, Q9NWH9” is -0.433 ± 0.034.

In turn, “SAFB-like transcription modulator D29A, Q9NWH9” yielded an abundance fitness of -0.681 ± 0.25. “SAFB-like transcription modulator D29C, Q9NWH9” returned an abundance fitness of -0.854 ± 0.22. The figure for “SAFB-like transcription modulator D29E, Q9NWH9” is -0.5 ± 0.13; for “SAFB-like transcription modulator D29G, Q9NWH9” it is -0.725 ± 0.096. “SAFB-like transcription modulator D29I, Q9NWH9”: the abundance fitness is -1.09 ± 0.43.

For the substance “SAFB-like transcription modulator D29K, Q9NWH9”, the abundance fitness is -1.06 ± 0.33. The value for “SAFB-like transcription modulator D29M, Q9NWH9” was -0.081 ± 0.13; that for “SAFB-like transcription modulator D29N, Q9NWH9” was -0.483 ± 0.063. The value for “SAFB-like transcription modulator D29P, Q9NWH9” was -0.656 ± 0.097; that for “SAFB-like transcription modulator D29Q, Q9NWH9” was -0.084 ± 0.07. Regarding “SAFB-like transcription modulator D29S, Q9NWH9”, the abundance fitness was -0.755 ± 0.19. “SAFB-like transcription modulator D29T, Q9NWH9” displayed an abundance fitness of -0.509 ± 0.12.

“SAFB-like transcription modulator D29V, Q9NWH9”: the abundance fitness is -0.717 ± 0.09. As for “SAFB-like transcription modulator D29W, Q9NWH9”, the abundance fitness was -0.882 ± 0.18. “SAFB-like transcription modulator D29Y, Q9NWH9” displayed an abundance fitness of -0.677 ± 0.089. The value for “SAFB-like transcription modulator D40A, Q9NWH9” was -0.2 ± 0.046; that for “SAFB-like transcription modulator D40C, Q9NWH9” was -0.594 ± 0.12; that for “SAFB-like transcription modulator D40E, Q9NWH9” was -0.318 ± 0.086. In turn, “SAFB-like transcription modulator D40F, Q9NWH9” came in with an abundance fitness of -1 ± 0.39. For “SAFB-like transcription modulator D40G, Q9NWH9”, the abundance fitness is -0.277 ± 0.069. The figure for “SAFB-like transcription modulator D40H, Q9NWH9” is -0.614 ± 0.24; for “SAFB-like transcription modulator D40I, Q9NWH9” it is -0.357 ± 0.092; for “SAFB-like transcription modulator D40K, Q9NWH9” it is -0.322 ± 0.099. The value for “SAFB-like transcription modulator D40L, Q9NWH9” was -0.35 ± 0.066; that for “SAFB-like transcription modulator D40M, Q9NWH9” was -0.377 ± 0.067. The figure for “SAFB-like transcription modulator D40Q, Q9NWH9” is -0.486 ± 0.12; for “SAFB-like transcription modulator D40R, Q9NWH9” it is -0.354 ± 0.066. Turning to “SAFB-like transcription modulator D40S, Q9NWH9”, the abundance fitness was -0.148 ± 0.062.

In turn, “SAFB-like transcription modulator D40T, Q9NWH9” showed an abundance fitness of -0.375 ± 0.049. The figure for “SAFB-like transcription modulator D40V, Q9NWH9” is -0.417 ± 0.072. The value for “SAFB-like transcription modulator D62A, Q9NWH9” was -0.386 ± 0.045; that for “SAFB-like transcription modulator D62C, Q9NWH9” was -0.198 ± 0.045. The figure for “SAFB-like transcription modulator D62E, Q9NWH9” is -0.397 ± 0.047; for “SAFB-like transcription modulator D62F, Q9NWH9” it is -0.526 ± 0.073. In the case of “SAFB-like transcription modulator D62G, Q9NWH9”, the abundance fitness is -0.534 ± 0.054. Take “SAFB-like transcription modulator D62H, Q9NWH9”: the abundance fitness is -0.253 ± 0.077. The figure for “SAFB-like transcription modulator D62I, Q9NWH9” is -0.339 ± 0.049; for “SAFB-like transcription modulator D62K, Q9NWH9” it is -0.531 ± 0.062.
